Reference: US20260069656A1, “Nutritive Polypeptides and Formulations Thereof, and Methods of Production and Use Thereof” (Axcella Health Inc., priority 2013, published 2026)

Tests used:
[1] = Pancreatin-based in vitro digestion, free amino acids by RP-HPLC
Method: In this method, pancreatin, a mixture of enzymes, is used to simulate intestinal proteases. Specifically, the digestion of polypeptides into amino acids was analyzed by an in vitro Pancreatin-based digestion assay followed by free amino acid analysis using reversed phase HPLC (RP-HPLC). The nutritive polypeptide was added to SGF (0.92 g/L Pepsin (Sigma), 0.03 M NaCl titrated with HCl to pH 1.5) at a final concentration of 4 g/L and incubated at 37° C. for 120 min. After 120 min, Na2CO3 was added to a final concentration of 16 mM to quench the pepsin reaction. […] Time points were sampled from the reaction and quenched by heating to 95° C. for 5 min. Control samples were protease-free.
Analyses were performed using an Agilent 1100 series system. Primary amino acids were derivitized pre-column at room temperature, online, using o-phthalaldehyde (OPA). The OPA-derivatives were separated using the Zorbax Eclipse-AAA 4.6×150 mm, 3.5 μm column at 40° C. The separation gradient transitioned from 100% 40 mM Na2HPO4 pH 7.8 to 65% acetonitrile/methanol/water mixture (45/45/10) over 23 minutes. Analytes were detected by fluorescence at 340 nm Ex/450 nm Em.

[2] = Intact half-life during simulated gastric fluid (SGF) digestion
[3] = Solubility of proteins (lyophilized/reconstituted or ultrafiltered); conditions: produced in E. coli unless otherwise noted
Method: Solubility. […] Protein samples were dried by lyophilization on a FreeZone Freeze Dry System (Labconco) using the manufacturer's standard protocol and then resuspended in buffer to the desired concentration. Centrifugal and tangential ultrafiltration were used to selectively remove buffer from the protein sample until the desired concentration was reached. Centrifugal ultrafiltration of protein solutions was performed by centrifugation (10,000×g) of 10 mg of protein in an Amicon centrifugal filter (Millipore) with a molecular weight cutoff of 3 kDa, 10 kDa, or 30 kDa, depending on the protein size, until the desired contrentration was reached. Ultrafiltration of protein solutions was performed on Hydrosart ultrafiltration cassettes (Sartorius Stedim, Bohemia, NY) with a molecular weight cutoff of 3 kDa, 10 kDa, or 30 kDa, depending on the protein size, at a cross flow rate of 12 L/m2/min. For most processes, transmembrane pressure was maintained at 20 psi and performed until the desired contrentration was reached.
The protein concentration of the above samples was measured by one or a combination of the following methods: Coomassie Plus Protein Assay, absorbance at 280 nm (A280), and total amino acid analysis. Coomassie Plus Protein Assays (Pierce) were performed according to the manufacturer's protocol. Absorbance at 280 nm was measured on a Nanodrop 2000 UV-Vis spectrophotometer. Protein concentration was determined using the A280 value and molar extinction coefficient, which was calculated by primary amino acid sequence using ProtParam (Gasteiger, Elisabeth, et al. The proteomics protocols handbook. Humana Press, 2005. 571-607.). Total amino acids were analyzed by HPLC after acid hydrolysis as described in Henderson, J. W., et al. Agilent Technologies (2010).

[4] = pH solubility screen in Citric Acid / Dibasic Sodium Phosphate buffers; assay type: physicochemical
Summary of the method: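 Protein at final 5 to 30 mg/ml in citrate/phosphate buffer mixtures (8 M urea control) was shaken 10 min at room temperature and turbidity read at A650. After 10 min 1100×g centrifugation, supernatant protein was measured by Bradford, electrophoresis and/or A280, giving the pH range above 80% solubility.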

[5] = SGF digest of the 168 nutritive polypeptide library, intact protein by LC-MS/MS spectral counts; assay type: in vitro ADME; conditions: proteins detected in the 168 nutritive polypeptide library
Method: Nutritive polypeptide intact half-life determination in a complex mixture. The in vitro intact half-life of multiple polypeptides in a complex mixture was determined using the simulated gastric in vitro digestion described above. Briefly, the 168 nutritive polypeptide library was generated as described herein by cloning, transforming, and expressing a gene library encoding 168 proteins as a single mixture. The recombinantly expressed proteins were purified from host cell proteins by IMAC purification as described herein.
The 168 Protein Library was treated with SGF as described above and the t=0 and t=10 min samples were analyzed for intact protein by LC-MS/MS. To begin, 10 μg of sample was loaded onto a 10% SDS-PAGE gel (Invitrogen) and run approximately 5 cm into the gel. The gel was excised into ten fractions from 100 kD to the dye front and the gel slices were processed by washing with 25 mM ammonium bicarbonate, followed by acetonitrile. Gel fractions were then reduced with 10 mM dithiothreitol at 60° C., followed by alkylation with 50 mM iodoacetamide at room temperature. Finally, the samples were digested with trypsin (Promega) at 37° C. for 4 h and the digestions were quenched with the addition of formic acid. The samples were then analyzed by nano LC/MS/MS using an EasynLC 1000 HPLC system interfaced to a ThermoFisher Q Exactive. Peptides were loaded on a trapping column and eluted over a 75 μm analytical column at 350 nL/min; both columns were packed with PepMap C18 3 μm resin (ThemoFisher). A 1 hour gradient was employed. The mass spectrometer was operated in data-dependent mode, with MS and MS/MS performed in the Orbitrap at 70,000 FWHM resolution and 17,500 FWHM resolution, respectively. The fifteen most abundant ions were selected for MS/MS. Data were searched against an appropriate database using Mascot to identify peptides. Mascot DAT files were parsed into the Scaffold software for validation, filtering and to create a nonredundant list per sample. Data were filtered at 1% protein and peptide false discovery rate (FDR) and requiring at least two unique peptides per protein. A full list of detected proteins and their spectral counts (SpC) was generated and reported as a function of each collected gel fraction. SpC are a count of the number of spectra identified for a given protein and are used as a measure of relative protein abundance (Liu, H. et al., Analytical Chemistry 2004, 76:4193-4201). To calculate the percentage of intact protein remaining at the 10 min time point of the SGF digest the number of SpC representative of intact peptide in the t=10 min sample were divided by the number of SpC representative of intact peptide in the t=0 min sample. The number of SpC representative of intact peptide was defined as the sum of the SpC in the fraction with the highest number of SpC assigned to that protein in the t=0 min sample and the two flanking fractions.

[6] = Thermostability, ProteoStat Thermal Shift Stability Kit, temperature of aggregation; assay type: physicochemical; conditions: NS = protein not soluble
Summary of the method: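 Proteins at ~10 mg/ml in citric acid/dibasic sodium phosphate buffer, pH 2.8 to 7.1, with ProteoStat TS detection reagent. Heated 25 °C to 95 °C at 0.5 °C per 30 sec, fluorescence monitored with a Texas Red filter.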

[7] = after 120 min SGF, Pancreatin SIF pH 6.5
[8] = SGF pH 1.5, pepsin:polypeptide 1:20 w/w, 37° C., produced in E. coli unless otherwise noted

Molecule	Free Leu (μM) at 120 min time point of Pancreatin digest [1, 7] [µM]	Solubility [3] [mg/mL]	SGF Half-life (t½) [2, 8] [s]	other results
Heat-denatured SEQID-00363: SEQID-00363 diluted to 30 g/L in 10% PBS and rapidly heated to 95° C. (protein, heat-denatured; Aspergillus niger) ATLDSWLSNEATVARTAILNNIGADGAWVSGADSGIVVASPSTDNPDYFYTWTRDSGLVLKTLVDLFRNGDTSLLSTIENYISAQAIVQGISNPSGDLSSGAGLGEPKFNVDETAYTGSWGRPQRDGPALRATAMIGFGQWLLDNGYTSTATDIVWPLVRNDLSYVAQYWNQTGYDLWEEVNGSSFFTIAVQHRALVEGSAFATAVGSSCSWCDSQAPEILCYLQSFWTGSFILANFDSSRSGKDANTLLGSIHTFDPEAACDDSTFQPCSPRALANHKEVVDSFRSIYTLNDGLSDSEAVAVGRYPEDTYYNGNPWFLCTLAAAEQLYDALYQWDKQGSLEVTDVSLDFFKALYSDAATGTYSSSSSTYSSIVDAVKTFADGFVSIVETHAASNGSMSEQYDKSDGEQLSARDLTWSYAALLTANNRRNSVVPASWGETSASSVPGTCAATSAIGTYSSVTVTSWPSIVATGGTTTTATPTGSGSVTSTSKTTATASKTSTSTSSTSCTTPTAVAVTFDLTATTTYGENIYLVGSISQLGDWETSDGIALSADKYTSSDPLWYVTVTLPAGESFEYKFIRIESDDSVEWESDPNREYTVPQACGTSTATVTDTWR				Free Leu (μM) at 120 min time point of Pancreatin digest ([1]; native and modified SEQID-00363): 763.5 µM; SGF Half-life (t½) ([2]; native and modified SEQID-00363, gel electrophoresis): 1220 s
SEQID-00425: nutritive polypeptide (protein, listed as Kluyveromyces lactis) MSCLIPENLRNPKKVHENRLPTRAYYYDQDIFESLNGPWAFALFDAPLDAPDAKNLDWETAKKWSTISVPSHWELQEDWKYGKPIYTNVQYPIPIDIPNPPTVNPTGVYARTFELDSKSIESFEHRLRFEGVDNCYELYVNGQYVGFNKGSRNGAEFDIQKYVSEGENLVVVKVFKWSDSTYIEDQDQWWLSGIYRDVSLLKLPKKAHIEDVRVTTTFVDSQYQDAELSVKVDVQGSSYDHINFTLYEPEDGSKVYDASSLLNEENGNTTFSTKEFISFSTKKNEETAFKINVKAPEHWTAENPTLYKYQLDLIGSDGSVIQSIKHHVGFRQVELKDGNITVNGKDILFRGVNRHDHHPRFGRAVPLDFVVRDLILMKKFNINAVRNSHYPNHPKVYDLFDKLGFWVIDEADLETHGVQEPFNRHTNLEAEYPDTKNKLYDVNAHYLSDNPEYEVAYLDRASQLVLRDVNHPSIIIWSLGNEACYGRNHKAMYKLIKQLDPTRLVHYEGDLNALSADIFSFMYPTFEIMERWRKNHTDENGKFEKPLILCEYGHAMGNGPGSLKEYQELFYKEKFYQGGFIWEWANHGIEFEDVSTADGKLHKAYAYGGDFKEEVHDGVFIMDGLCNSEHNPTPGLVEYKKVIEPVHIKIAHGSVTITNKHDFITTDHLLFIDKDTGKTIDVPSLKPEESVTIPSDTTYVVAVLKDDAGVLKAGHEIAWGQAELPLKVPDFVTETAEKAAKINDGKRYVSVESSGLHFILDKLLGKIESLKVKGKEISSKFEGSSITFWRPPTNNDEPRDFKNWKKYNIDLMKQNIHGVSVEKGSNGSLAVVTVNSRISPVVFYYGFETVQKYTIFANKINLNTSMKLTGEYQPPDFPRVGYEFWLGDSYESFEWLGRGPGESYPDKKESQRFGLYDSKDVEEFVYDYPQENGNHTDTHFLNIKFEGAGKLSIFQKEKPFNFKISDEYGVDEAAHACDVKRYGRHYLRLDHAIHGVGSEACGPAVLDQYRLKAQDFNFEFDLAFE	713.1	190	18	
SEQID-00423: nutritive polypeptide (protein, Bacillus Amyloliquefaciens) VNGTLMQYFEWYTPNDGQHWKRLQNDAEHLSDIGITAVWIPPAYKGLSQSDNGYGPYDLYDLGEFQQKGTVRTKYGTKSELQDAIGSLHSRNVQVYGDVVLNHKAGADATEDVTAVEVNPANRNQETSEEYQIKAWTDFRFPGRGNTYSDFKWHWYHFDGADWDESRKISRIFKFRGEGKAWDWEVSSENGNYDYLMYADVDYDHPDVVAETKKWGIWYANELSLDGFRIDAAKHIKFSFLRDWVQAVRQATGKEMFTVAEYWQNNAGKLENYLNKTSFNQSVFDVPLHFNLQAASSQGGGYDMRRLLDGTVVSRHPEKAVTFVENHDTQPGQSLESTVQTWFKPLAYAFILTRESGYPQVFYGDMYGTKGTSPKEIPSLKDNIEPILKARKEYAYGPQHDYIDHPDVIGWTREGDSSAAKSGLAALITDGPGGSKRMYAGLKNAGETWYDITGNRSDTVKIGSDGWGEFHVNDGSVSIYVQK	587.1	193		
SEQID-00429: nutritive polypeptide (protein, listed as Bacillus licheniformis) ANLKGTLMQYFEWYMPNDGQHWKRLQNDSAYLAEHGITAVWIPPAYKGTSQADVGYGAYDLYDLGEFHQKGTVRTKYGTKGELQSAIKSLHSRDINVYGDVVINHKGGADATEDVTAVEVDPADRNRVISGEHRIKAWTHFHFPGRGSTYSDFKWHWYHFDGTDWDESRKLNRIYKFQGKAWDWEVSNENGNYDYLMYADIDYDHPDVAAEIKRWGTWYANELQLDGFRLDAVKHIKFSFLRDWVNHVREKTGKEMFTVAEYWQNDLGALENYLNKTNFNHSVFDVPLHYQFHAASTQGGGYDMRKLLNGTVVSKHPLKAVTFVDNHDTQPGQSLESTVQTWFKPLAYAFILTRESGYPQVFYGDMYGTKGDSQREIPALKHKIEPILKARKQYAYGAQHDYFDHHDIVGWTREGDSSVANSGLAALITDGPGGAKRMYVGRQNAGETWHDITGNRSEPVVINSEGWGEFHVNGGSVSIYVQR	580.7	214	300	
SEQID-00485: nutritive polypeptide naturally produced in Chickpea, recombinantly expressed in E. coli (protein, listed as Cicer arietinum) MTKTGYINAAFRSSRNNEAYLFINDKYVLLDYAPGTSNDKVLYGPSFVRDGYKSLAKTIFGTYGIDCSFDTEYNEAFIFYENFCARIDYAPHSDKDKIISGPKKIADMFPFFKGTVFENGIDAAFRSTKGKEVYLFKGDKYARIDYLTNRLVQNIKSISDGFPCLRGTIFEAGMDSAFASHKTNEAYLFKGEYYARINFTPGSTNDIMGGVKKTLDYWPSLRGIIPLE		99	30	pH Range where Protein is >80% detected as Soluble and A650 <1 OD: Low ([4]; lower pH of range): 4.6; pH Range where Protein is >80% detected as Soluble and A650 <1 OD: Other ([4]; other pH where soluble): 2.8; pH Range where Protein is >80% detected as Soluble and A650 <1 OD: High ([4]; upper pH of range): 7.1; % Remaining at 10 min [5]: 0%; Half-life ([2]; purified proteins, chip electrophoresis, SGF): 30 s; Tagg pH 5.0 ([6]; pH 5.0): 31.5; Tagg pH 5.6 ([6]; pH 5.6): 34.5; Tagg pH 6.0 ([6]; pH 6.0): 36; Tagg pH 6.5 ([6]; pH 6.5): 36.5; Tagg (pH 7.1) ([6]; pH 7.1, heated 25° C. to 95° C.): 36
SEQID-00341: nutritive polypeptide (protein, listed as Saccharomyces cerevisiae, strain ATCC 204508 / S288c) MSTSREDSVYLAKLAEQAERYEEMVENMKTVASSGQELSVEERNLLSVAYKNVIGARRASWRIVSSIEQKEESKEKSEHQVELICSYRSKIETELTKISDDILSVLDSHLIPSATTGESKVFYYKMKGDYHRYLAEFSSGDAREKATNASLEAYKTASEIATTELPPTHPIRLGLALNFSVFYYEIQNSPDKACHLAKQAFDDAIAELDTLSEESYKDSTLIMQLLRDNLTLWTSDMSESGQAEDQQQQQQHQQQQPPAAAEGEAPK	1143.5	166	12	
